{"source": "the DeepSol protein solubility set"}
{"test": "soluble on expression in E. coli; label from the status in PepcDB or PDB records"}
{"sequence": "MDTAGIRLTPKEIVSKLNEYIVGQNDAKRKVAIALRNRYRRSLLDEESKQEISPKNILMIGPTGVGKTEIARRMAKVVGAPFIKVEATKFTEVGYVGRDVESMVRDLVDVSVRLVKAQKKSLVQDEATAKANEKLVKLLVPSMKKKASQTNNPLESLFGGAIPNFGQNNEDEEEPPTEEIKTKRSEIKRQLEEGKLEKEKVRIKVEQDPGALGMLGTNQNQQMQEMMNQLMPKKKVEREVAVETARKILADSYADELIDQESANQEALELAEQMGIIFIDEIDKVATNNHNSGQDVSRQGVQRDILPILEGSVIQTKYGTVNTEHMLFIGAGAFHVSKPSDLIPELQGRFPIRVELDSLSVEDFVRILTEPKLSLIKQYEALLQTEEVTVNFTDEAITRLAEIAYQVNQDTDNIGARRLHTILEKMLEDLSFEAPSMPNAVVDITPQYVDDKLKSISTNKDLSAFIL", "soluble on expression in E. coli": "not soluble"}
{"sequence": "MGSDKIHHHHHHMRSDLRIAIVANEKRGDGNIELRLQSKGYQVVTLTTPSSVMGFIYSDPPDVILMDLSSPDEAFLGIIRSLKDDFFFSTIPVIGMMPEPAAEFFDWDEYPLDDFVTFPLNFRELFTRIVLSLRRLRRVFDNNPLTRLPGNTSIQRAIEQTVGKPMAVCYVDINHFKQYNDVYGFAHGDEVLRMLGRIMSNAVKDAGDGFAGHIGGDDFVFIVPFDQAEVVAGRIIANFTAVVSELFNEEEKRNGFFLAHDRKGNEEKVPLMGVAIAIVPTDSPKIGHYAKVAEVAAELKTLAKQSHKSCFVVDRRKY", "soluble on expression in E. coli": "not soluble"}
{"sequence": "MQFGIFTIGDVTTDPTTGVTPSEHDRINAMTQIALKAEEVGLDVFATGEHHNPPFVPSSPTTHLAYIAAQTKNIQLSTSTTLITTNDPVKIAEDYAFLQHLSGGRVDLMMGRGNTGPVYPWFGKDIRKGIPLAVENYHLLRKLWREPVVNWKGEFRTPLQNYTSTPAPLGDVPPFVWHGSIRSVQIAEQAAFYGDGFFHNNIFWNKEHTAQMVNIYRQRFEKYGHGRADQAIVGLGGQVFIGETEAEAKKFFRPYFDNAPVYGHGPSLEEFTELTPLTVGTVEQVIERTMQFADWVGDYQRQLFLIDHAGLPLEVVLNQIEILGTQVVPELRRRMEKRRPDHVPSDPPSHSFLKAHPEHPHFLVEPSKTSAQ", "soluble on expression in E. coli": "not soluble"}
{"sequence": "MGSDKIHHHHHHMSAQVQDLTPIKGVTYYYPPHDAVLVFKDGAAEIPYGGLPVPLLEEDYASLDGEPSYDAVGRGVYQTLRTNPDCIHCAAYATLLRDAYPHYLAELASHAIMLDSKDVEVPYIDRKIVSLKVLSLLEPDNAGLPLEIGRAYLDRGLRLSALHMSTVSIYRAEHFLRRALELTPEDGRALRLLGEVCYLLGKYEEAASCWLDTLDLADADEAERFRVRLARISEGRLPLIAPVDYLEAIGAAFTCFHTGDYEEAVAILQDVLMDGIFCAEFPIADIHCVIGKSFVQLDMPRYAEESFRAALQLDPAHEESLACLRKVTGEE", "soluble on expression in E. coli": "not soluble"}
{"sequence": "MGSDKIHHHHHHENLYFQGMIKLIATDIDGTLVKDGSLLIDPEYMSVIDRLIDKGIIFVVCSGRQFSSEFKLFAPIKHKLLYITDGGTVVRTPKEILKTYPMDEDIWKGMCRMVRDELPACDYFAATPDFCFAEDGGSPIFHLLRDSYGFEMREVDDITRLDRNDIIKFTVFHPDKCEELCTPVFIPAWNKKAHLAAAGKEWVDCNAKGVSKWTALSYLIDRFDLLPDEVCCFGDNLNDIEMLQNAGISYAVSNARQEVIAAAKHTCAPYWENGVLSVLKSFL", "soluble on expression in E. coli": "soluble"}
{"sequence": "MSLSSKKLGVILYGPPASGKDTVAQALSELDARYGQFARLKVGSGRTTRYRMGTAEQLHDLEAAGAAIYTNSRYGNTYVIDRPGMDSAFEAGVPVVHLGQIDGIRALVDGYTADWAVVLLWCSQEVTAQRSAGRGDSDTTARLAAWQATREDLDAHPDMRWDLTVDTEATAAEESARLIDQLLHARAGVTEGHHHHHH", "soluble on expression in E. coli": "soluble"}
{"sequence": "MGSDKIHHHHHHMFGFRLSGGKGILQRSQVALVVMESTGGLEIPAAKAIRRAGIAVIIANPRQTHQFAQLQPLTKTDAKDAKMPAFFAQMTAQKEDSQTMPYQPPTEAEEVLEALVNRRNQSADMRTAEKNRLHQVHETQVGSVKQLIAHFDRLIDELDKQIDDHTHTHFDGKAQVAEQIKGIGSITTATLMAMLPELGRLSHKRIASLAGIAPHPRESEETKFKSRCFGGRSAVRKALYMATVAATRFEPLIRDFYQRLLSKGKPYKVAVTACMRKLLTISNTRMRDYFAENDTAENGIRTA", "soluble on expression in E. coli": "not soluble"}
{"sequence": "MYGEGDFYTIKSKRDYEFYLEADRLALGKNCKKPRLIGDDIWKFQRLLRQAEYYSNCQNSLLHKLYLKYILFRFHRMSIRLGFSIPINVFGPGLCIAHRGTIVVNKGARVGENCRIHACTNIGSGRDNIFLAPKIGNGVYIGPGAKIFGSVEIADNIAIGANSVVNRSFYERGISIAGVPAKKISNKGSDGMVIAATKTVSVPVSQETILEHHHHHH", "soluble on expression in E. coli": "soluble"}
{"sequence": "VRALLAQNRLVTLCGTGGVGKTRLAIQIASASELRDGLCFVDLAPITESGIVAATAARAVGLPDQPGRSTMDSLRRFIGNRRMLMVLDNCEHLLDACAALVVELLGACPELTILATSREPIGMAGEITWRVPSMSITDEAVELFADRASRVQPGFTIANHNAAAVGEICRRLDGIPLAIEFAAARVRSMSPLEIADGLDDCFRLLAGGVRGAVQRQQTLRASIDWSHALLTETEQILFRRLAPFVGGFDLAAVRAVAAGSDLDPFSVLDQLTLLVDKSLVVADDCQGRTRYRLLETVRRYALEKLGDSGEADVHARHRDYYTALAASLNTPADNDHQRLVARAETEIDNLRAAFAWSRENGHITEALQLASSLQPIWFGRAHLREGLSWFNSILEDQRFHRLAVSTAVRARALADKAMLSTWLATSPVGATDIIAPAQQALAMAREVGDPAALVRALTACGCSSGYNAEAAAPYFAEATDLARAIDDKWTLCQILYWRGVGTCISGDPNALRAAAEECRDLADTIGDRFVSRHCSLWLSLAQMWAGNLTEALELSREITAEAEASNDVPTKVLGLYTQAQVLAYCGASAAHAIAGACIAAATELGGVYQGIGYAAMTYAALAAGDVTAALEASDAARPILRAQPDQVTMHQVLMAQLALAGGDAIAARQFANDAVDATNGWHRMVALTIRARVATARGEPELARDDAHAALACGAELHIYQGMPDAMELLAGLAGEVGSHSEGVRLLGAAAALRQQTRQVRFKIWDAGYQASVTALREAMGDEDFDRAWAEGAALSTDEAIAYAQRGRGERKRPARGWGSLTPTERDVVRLVSEGLSNKDIAKRLFVSPRTVQTHLTHVYAKLGLPSRVQLVDEAARRGSPS", "soluble on expression in E. coli": "not soluble"}
{"sequence": "RLVDESALEEFLTREIGPAETFDVARHEQGHSNETLFVTWGDRELVVRRPPPGQTAETAHDVLREYRVIDALQDTAVPVPPTVTACDDQTIIGSDFYVMARVEGTVIRDDEPARFGSDDARAAVGTELVDTLAAIHEVDPTAVGLSDLGRADGYAKRQVARWGKQLAWAFERTAESRTIPELERVGSWLQDECPDDHPKTLVHGDYKLDNVMFGPGDDPELAAVFDWEMATLGDPRADLGWLLSYWRD", "soluble on expression in E. coli": "not soluble"}
{"sequence": "MPKTISVRVTTMDAELEFAIQPNTTGKQLFDQVVKTIGLREVWFFGLQYQDTKGFSTWLKLNKKVTAQDVRKESPLLFKFRAKFYPEDVSEELIQDITQRLFFLQVKEGILNDDIYCPPETAVLLASYAVQSKYGDFNKEVHKSGYLAGDKLLPQRVLEQHKLNKDQWEERIQVWHEEHRGMLREDAVLEYLKIAQDLEMYGVNYFSIKNKKGSELWLGVDALGLNIYEQNDRLTPKIGFPWSEIRNISFNDKKFVIKPIDKKAPDFVFYAPRLRINKRILALCMGNHELYMRRRKP", "soluble on expression in E. coli": "soluble"}
{"sequence": "MGFLERIKKLFSKEEEKQEESILSNPLERLKKGDIIEIDGETWEVTDVALYDYGASKEKEWEIRSASRRGFLSLEEGKIYFFEEIDPEELEPDPGEHFRKYGKPPEYVTYKGKRYRLKYAGKAKYIKNLESYPVTIWEFRSEDGEMIDLEIWDEYEIEAYKGRELQEWEIESILPR", "soluble on expression in E. coli": "not soluble"}
{"sequence": "MRRESYRERALVVRSYDFGEADRIIVLFTRGRGIVRGVAKGVRRAKSRFGSRLQPFVELDVQLYRGRNLESITAADTVAYFGAKIIDDVTRFSAASSILEGVEKLAVGDEPRLFDLTVTALKNMQSCAHPVAEVDTFLLQGMNIAGWAPSLFDCAQCGASGPHHAFHPSPGGAVCVHCRPLGAQEVDPETLHMMWLMAQGHRDAVAEIGTPERYQQAHALIRSHLSWHVERGLASLNVLDQV", "soluble on expression in E. coli": "not soluble"}
{"sequence": "MSKKFVNKAEEAVDDALFGLVSSNSNVKFHKSCRRVVHITDLNPSHHVSLIAGGGSGHEPYAAGYVGKGLLTAAIAGNVFASPPSRNVQAALEATRGEAGAILFVINYTGDRLNFGLAAERFNASGGTARVVTIADDVAIDSPNSKVGRRGLAGAVLTIKIAGAMAWEGKSLDEIYETSQKVVSSMGTLGVSLYTGSLPGKNRETELPDDQIEVGLGIHGEPGKFRAQFGSANRIVHSLLDTLRSKMEMREGEKFVVLVNNLGSVSQLEMNIVNGEVLRYFEDHKIGITRFFSGIYMTSLDGHGVSVTILRADDSMLQYLDAPAAAPGWIPALSVQKCVDHQEISDSSSQGDLISEIPASGVTVNAQLVEACVGGVVDAMLESEKHLNQLDAYAGDGDCGSTFAGAAEAIRKQTSGLNYTHPETLLKQLSIIFEQTVGGTSGALYALMFSSAAQSFAQRSQRGEKIDRTSILEALDKANRAVQKYGGARVGDRTMVDGLDAMVEELRKGFSGNEESLDAIFEAAVKASEKAAKATASQTATVGRASYTSSEAQTKPDAGATAISLWLRACWTAYKSEK", "soluble on expression in E. coli": "not soluble"}
{"sequence": "MKIALIGASGYVGSALLKEALSRGHHVTALVSRPERIAAQANLAAAKVDVQDSAQLAEQLKGFDAVLSAFSGHAQAEQFDYFVKGIRSIIAAAKAAQAPRLLVVGGAGSLEVAPGVQLVDTPEFPEQWKASALGAREALNLLRAETELNWTLLSPSAMLQPGQRTGQFRLGKDQLLVDAEGNSHISVEDYAVAMIDELEKGEHQRSRFTVGYLEHHHHHH", "soluble on expression in E. coli": "soluble"}
{"sequence": "VINESEKEMIDSIFEFDDRIAEEVMTPRTEVYLINIDTPLNKYVDELLEIKYSRVPVFEGDSDNIIGILYIKDFIVEARKVGFENVNIKNIIHSPYFVPERKNINELFKELQAAKKHMAVLIDEYGGFSGIVTIEDLIEEVMGNISDE", "soluble on expression in E. coli": "soluble"}
{"sequence": "GHMSDLVTKFESLIISKYPVSFTKEQSAQAAQWESVLKSGQIQPHLDQLNLVLRDNTFIVSTLYPTSTDVHVFEVALPLIKDLVASSKDVKSTYTTYRHILRWIDYMQNLLEVSSTDKLEINHD", "soluble on expression in E. coli": "soluble"}
{"sequence": "GHMKQSHFFAHLSRLKLINRWPLMRNVRTENVSEHSLQVAMVAHALAAIKNRKFGGNVNAERIALLAMYHDASEVLTGDLPTPVKYFNSQIAQEYKAIEKIAQQKLVDMVPEELRDIFAPLIDEHAYSDEEKSLVKQADALCAYLKCLEELAAGNNEFLLAKTRLEATLEARRSQEMDYFMEIFVPSFHLSLDEISQDSPL", "soluble on expression in E. coli": "soluble"}
{"sequence": "MEHNQLIAMITEAVMEQIRPLPKINQIPVAISNRHVHLSQEDAQTLFGPNYSFKIKKDLSQPGQYACEERVTLVGPKGVIENVRILGPVRPQTQVELSVSDGIKLGITPPVRDSGDLANSAGITLVGPSGSLTLPEGVIAAARHIHMHSTDAARFGVKDRDRVSVTAPGPRGLVFRETLIRVSHNFTLEMHIDIDEANAAALRNQDYVELLLVNHLLP", "soluble on expression in E. coli": "not soluble"}
{"sequence": "MGTPVVWEGNIGNPPEHKSFPNGNNEPRQLLRLNVMFDNSIPDGSGGYKDRGGFWANVEWWHPDAERFAQLFSKGMRVVVTGRAIMDTWKDKETGDDVWALKVEANRVAILPHRVNQVTMTQSNNTGQRQNAQQNNRPERQQNSAQQPGQHTDDLSHYGNGFDDDIPVLEHHHHHH", "soluble on expression in E. coli": "soluble"}
